This assay deals with human SHP2 catalytic domain (human) (UniProt Q06124).

As to “isolated SHP2 N-SH2 domain (domain or fragment)”, the IC50 of inhibition of SHP2 CD PTP activity by isolated N-SH2 (Figure S2) was determined as 15 µM.

The values above are taken from paper PMC9089384.
